Article PMC4684408, “Co-evolution of Bacterial Ribosomal Protein S15 with Diverse mRNA Regulatory Structures”
Changes are numbered by the printed parent chain.

Tests used:
Ec-S15 [1] = biological target: T1, Ec-S15 (Escherichia coli, UniProt P0ADZ4 1-89); assay: filter binding; 5'-32P and 3'-pCp label; 50 mM Tris/acetate pH 7.5, 20 mM Mg-acetate, 270 mM KCl, 5 mM DTT, 0.02% BSA, RNA <1 nM, 30 min at 25 C (thermophile RNAs also at 55 C)
Gk-S15 [2] = biological target: T2, Gk-S15 (UniProt Q5L0I3 1-89); assay: filter binding; 50 mM Tris/acetate pH 7.5, 20 mM Mg-acetate, 270 mM KCl, 5 mM DTT, 0.02% BSA, RNA <1 nM, 30 min at 25 C (thermophile RNAs also at 55 C); details: protein: recombinant, label: 5'-32P
Tt-S15 = Tt-S15 (Thermus thermophilus, UniProt Q5SJ76); assay: as above; details: protein: recombinant, label: 5'-32P
Chain of Tt-S15 (Q5SJ76 2-89): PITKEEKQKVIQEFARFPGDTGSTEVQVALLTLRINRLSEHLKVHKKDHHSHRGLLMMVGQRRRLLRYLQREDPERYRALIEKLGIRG

Gk-S15 [3] = biological target: T2, Gk-S15; assay: filter binding; max fraction bound <20%; 50 mM Tris/acetate pH 7.5, 20 mM Mg-acetate, 270 mM KCl, 5 mM DTT, 0.02% BSA, RNA <1 nM, 30 min at 25 C (thermophile RNAs also at 55 C); details: protein: recombinant; label: 5'-32P
Ec-S15 [4] = biological target: T1, Ec-S15; assay: filter binding; 50 mM Tris/acetate pH 7.5, 20 mM Mg-acetate, 270 mM KCl, 5 mM DTT, 0.02% BSA, RNA <1 nM, 30 min at 25 C (thermophile RNAs also at 55 C)
Rr-S15 = Rr-S15 (UniProt A0ABD5LGG5 1-89); assay: as above; details: protein: recombinant; label: 5'-32P
Chain of Rr-S15 (A0ABD5LGG5 entry or part of it): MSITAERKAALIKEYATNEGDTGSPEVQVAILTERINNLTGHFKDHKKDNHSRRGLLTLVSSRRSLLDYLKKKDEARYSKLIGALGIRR

B1: Ec-mRNA WT (structured_RNA)
RNA: ACUGGGAUCGCUGAAUUAGAGAUCGGCGUCCUUUCAUUCUAUAUACUUUGGAGUUUUAAAAUGUCUCUAAGUACUGAAGCAACAGCU
Ec-S15 [1]
  binding result: no binding

B2: Rr-mRNA M1 (structured_RNA)
RNA: GGAUAGGCAGCGCCAGCUUGGGCUUUGCCUAUGCUGCUGAAUGGCCAGAGAAAGACGACAUCCCGGCUCUAGGCGUCCCCGUUUUUCCUUAAAACAAGAAAGGAUCGUACGAUGUCGAUUACUGCAGAGCGCAAAGCC
Gk-S15 [2]
  Kd: 11.8 ± 6.9 nM
Tt-S15
  Kd: 8.8 ± 1.8 nM

B3: Tt-mRNA WT (structured_RNA)
RNA: GGCUUGGCGGGAGACCGCCUCGAGGAGGAAGGGGCUCAAAGCGCCUUCCCGCCUGACGGAGGGAAAACAUGCCCAUCACGAA
Gk-S15 [2]; three-way junction
  Kd: 0.35 ± 0.23 nM
Tt-S15; three-way junction
  Kd: 2.11 ± 0.25 nM

B4: Tt-mRNA M1 (structured_RNA)
RNA: B3 RNA with U20A, C21A, G22A, A23U
Gk-S15 [3]
  Kd: 76.3 ± 5.7 nM

B5: Gk-mRNA M2 (structured_RNA)
RNA: GGUCAAUGUAUGCGAACCAUUCUCCGGCUAGGCGAGUCACCGACGCCCGCUCGGCAAUCGGGGAUCUAGGACUAGGGAGGUGAACAAGGAUGGCAUUGAA
Ec-S15 [4]
  binding result: no binding
Rr-S15
  binding result: no binding
Tt-S15
  binding result: no binding
